The source of these data is paper PMC4893818, “Folliculin directs the formation of a Rab34–RILP complex to control the nutrient‐dependent dynamic distribution of lysosomes” (EMBO Reports, 2016).

Changes are numbered by the printed parent chain. Numbers in names are those of the source.

For assay [1], the target named is T1, GST-RILP (full ORF) (human, UniProt Q96NA2 1-401).
T1 construct: also called GST-RILP resin; source: E. coli BL21(DE3), purified (glutathione beads, eluted with glutathione, dialysed); not shown: GST, N-terminal, kept
T1 sequence (looked up): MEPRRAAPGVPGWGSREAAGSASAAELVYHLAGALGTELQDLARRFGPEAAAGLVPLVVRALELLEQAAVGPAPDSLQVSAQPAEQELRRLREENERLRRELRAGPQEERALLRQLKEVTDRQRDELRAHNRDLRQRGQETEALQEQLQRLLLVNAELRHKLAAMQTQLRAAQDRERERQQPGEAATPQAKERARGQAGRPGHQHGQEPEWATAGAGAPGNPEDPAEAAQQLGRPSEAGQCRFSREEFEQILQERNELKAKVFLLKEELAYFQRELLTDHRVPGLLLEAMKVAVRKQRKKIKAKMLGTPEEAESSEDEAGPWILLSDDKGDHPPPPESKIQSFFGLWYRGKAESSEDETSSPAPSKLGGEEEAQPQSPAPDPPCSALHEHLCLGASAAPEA
Nature of the assay: pull-down; GST-RILP or GST on beads, His-FLCN-DENN in E. coli extract; Western blot. The following applies: one partner purified.

For assay [2], the target named is T1, GST-RILP (full ORF). Put plainly: pull-down; purified proteins: 0.2 nmol GST-RILP on glutathione beads; Rab34 proteins at 200 nM together with FLCN-DENN (1 uM; titrated 0 to 10 uM; 0.5 uM for wild-type Rab34); HEPES pH 7.5, 250 mM NaCl, 2 mM MgCl2, 1 mM GDP or GTPγS; 14 h at 4 °C; anti-His Western blot. The following applies: both partners purified. Background: A western blot detects proteins with antibodies after separation by electrophoresis.

The target of assay [3] is T1, GST-RILP (full ORF). Put plainly: pull-down; 0.1 nmol GST-RILP prebound to glutathione beads, lysate of HeLa cells in normal growth or starved 4 h; 25 mM HEPES pH 7.5, 150 mM NaCl, 2 mM MgCl2, 0.2% NP-40, 0.2% Triton X-100; Western blot. The following applies: one partner purified.

B1: His-tagged human FLCN-DENN domain (amino acids 341-556) (domain or fragment, UniProt Q8NFG4 341-556, looked up)
chain: RKLPVFKSLRHMRQVLGAPSFRMLAWHVLMGNQVIWKSRDVDLVQSAFEVLRTMLPVGCVRIIPYSSQYEEAYRCNFLGLSPHVQIPPHVLSSEFAVIVEVHAAARSTLHPVGCEDDQSLSKYEFVVTSGSPVAADRVGPTILNKIEAALTNQNLSVDVVDQCLVCLKEEWMNKVKVLFKFTKVDSRPKEDTQKLLSILGASEEDNVKLLKFWMTG
notes: folliculin (FLCN), human, C-terminal DENN domain, amino acids 341-556, in pET28 His-thrombin; vector pET28 His-thrombin; detected by an anti-His antibody; also called His-FLCN-DENN; source: E. coli, purified (His-trap FF, imidazole gradient)
B1: in assay [1], the binding result is “binds”.

B2: His-tagged Rab34 WT (natural protein, mouse, UniProt Q64008 1-259, looked up)
chain: MNILAPVRRDRVLAELPQCLKKEAALHVRKDFHPRVTCACQEHRTGTVGFKISKVIVVGDLSVGKTCLINRFCKDTFDKNYKATIGVDFEMERFEVLGVPFSLQLWDTAGQERFKCIASTYYRGAQAIIIVFNLNDVASLEHTKQWLTDALKENDPSNVLLFLVGSKKDLSTPAQYSLMEKDALKVAQEIKAEYWAVSSLTGENVREFFFRVAALTFEANVLADVEKSGARHIADVVRINSDDKNLYLTASKKKATCCP
notes: Rab34, mouse, from an I.M.A.G.E. clone, in pET28 His-thrombin; loaded with GTPγS or GDP before the pull-down; also called wild-type Rab34; purified Rab34; source: E. coli, purified (His-trap FF, imidazole gradient)
For B2, the binding result in assay [2] is recorded as “binds”.

B3: His-tagged Rab34 Q111L (natural protein, mouse, UniProt Q64008 1-259, looked up)
chain: B2 chain with Q111L
notes: Rab34, mouse, from an I.M.A.G.E. clone, in pET28 His-thrombin; assayed in the presence of 1 mM GTPγS; also called GTP hydrolysis-deficient (Q111L) Rab34; source: E. coli, purified (His-trap FF, imidazole gradient)
B3: the “fold enhancement of binding to RILP in the presence of FLCN-DENN (1 uM) against without it” value in assay [2] was ~2.7 fold.

B4: endogenous Rab34 (natural protein, UniProt Q9BZG1 1-259, looked up)
chain: MNILAPVRRDRVLAELPQCLRKEAALHGHKDFHPRVTCACQEHRTGTVGFKISKVIVVGDLSVGKTCLINRFCKDTFDKNYKATIGVDFEMERFEVLGIPFSLQLWDTAGQERFKCIASTYYRGAQAIIIVFNLNDVASLEHTKQWLADALKENDPSSVLLFLVGSKKDLSTPAQYALMEKDALQVAQEMKAEYWAVSSLTGENVREFFFRVAALTFEANVLAELEKSGARRIGDVVRINSDDSNLYLTASKKKPTCCP
notes: Rab34 small GTPase, endogenous in human cell lines; source: endogenous, HeLa lysate; endogenous, lysates of UOK257, UOK257-2, UOK257-FLCN and UOK257-FLCNΔDENN cells
B4: the “fold increase of Rab34 retained on GST-RILP, starved against normal growth” value in assay [3] is ~2 fold.
